The text below walks through data of the supplement of paper PMC10126150.

The data set relates to ATP. Nature of the data set: switch fluorescence ratio, 500 uM ATP over buffer (Cy3 cluster intensity, sum of 5 cycles each) (fold (ratio)); higher = stronger signal-on switching upon ATP binding; sequences stand for … in TCGTCGGCAGCGTCAGATGTGTATAAGAGACAGTTTTTTTTTTTTTTTTTTTTTTTTT…TC. The settings on record: aptamer strand: ATP DNA aptamer (quencher-CACCTGGGGGAGTATTGCGGAGGAAGG + anchor), 100 nM annealed; ATP concentration: 500 uM. In outline: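 Five buffer/ATP imaging cycles were run on Cy3-labelled switching-strand clusters on a modified Illumina MiSeq flow-cell, with NaOH stripping and re-annealing between cycles. In each cycle, clusters annealed to 100 nM quencher-labelled ATP aptamer were imaged in selection buffer, then after 15 min with 500 uM ATP at 22 °C. Per cluster, the fluorescence ratio is summed target-cycle over summed buffer-cycle Cy3 intensity, averaged per switch-domain sequence. Only clusters within 100-1000 RFU were kept.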

± gives the standard deviation of the averaged measurements.
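Also: ATP exposure 15 min at 22 °C before imaging.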

As to AATTTTTGAG, the switch fluorescence ratio came out at 0.988 ± 0.024. Regarding GTAGTGACGT, the switch fluorescence ratio is 0.975 ± 0.044.

With GCCTTGACAG, the switch fluorescence ratio amounted to 0.989 ± 0.025. For the sequence CCGCAGAGCA, the switch fluorescence ratio was determined as 1.79 ± 0.043. With TGTGGTATGG the figure was 1.008 ± 0.0065; with TAAGACTGAT, 1.016 ± 0.0019; with TGGGTATAGA, 1.01 ± 0.032. Consider GTGGTAGTTC, for which the switch fluorescence ratio worked out at 0.983 ± 0.015. In the case of TACGAGTGCG, the switch fluorescence ratio was 1.04 ± 0.06. On to CGCTTTAATT, for which the switch fluorescence ratio worked out at 0.989 ± 0.032. AGCTGGTGGA: the switch fluorescence ratio was 1.02 ± 0.024. On to TCGGTGAGGG, for which the switch fluorescence ratio came to 1.02 ± 0.07. Turning to GTTTTGGCTG, the switch fluorescence ratio was 1.02 ± 0.036. For the sequence TGGGGGACTT, the switch fluorescence ratio amounted to 0.99 ± 0.039. TCAATAGATG: the switch fluorescence ratio was found to be 0.998 ± 0.032. As to TAGTTAACTT, the switch fluorescence ratio is 1.01 ± 0.021. For ATGCACACCG, the switch fluorescence ratio was 1.087 ± 0.0016. On to TGGTAATTAT, for which the switch fluorescence ratio is 0.974 ± 0.023. For the sequence TGTTATAGTT, the switch fluorescence ratio worked out at 1.01 ± 0.055. Turning to TGATATACTG, the switch fluorescence ratio was determined as 0.968 ± 0.026. As for CTCGGAGATT, the switch fluorescence ratio was 1.01 ± 0.018. With TTTCTATGGG, the switch fluorescence ratio was found to be 1.03 ± 0.033. As for GTGGTTAAAA, the switch fluorescence ratio came out at 0.998 ± 0.012. For the sequence TGTGGCATGA, the switch fluorescence ratio came out at 0.9736 ± 0.0058. On to ATAGAATTGT, for which the switch fluorescence ratio worked out at 0.9803 ± 0.0091.

Regarding AATGAAGCTC, the switch fluorescence ratio amounted to 0.966 ± 0.051.

With GACATTGGCT, the switch fluorescence ratio turned out to be 0.948 ± 0.03. In the case of GTTTGGTGAG it was 1.01 ± 0.021; in that of GGTAACGTTC, 0.989 ± 0.015; in that of AAGTGTTATT, 0.992 ± 0.026. Consider CATAGATGGA, for which the switch fluorescence ratio came to 1.03 ± 0.036. In the case of TTTATCGGGG it was 0.988 ± 0.011; in that of AGGTAGGGGC, 1.02 ± 0.026. Take CGTTGCCGCT: the switch fluorescence ratio was 0.934 ± 0.054. For CATTTATAGT, the switch fluorescence ratio was 0.9799 ± 0.0083. On to TTCGCAACAG, for which the switch fluorescence ratio came to 2.19 ± 0.67. With TAAATACTAT the figure was 1.01 ± 0.018; with GGGGGGACAC, 1.031 ± 0.0019. In the case of AGTCATTAGG it was 1.03 ± 0.041. In the case of TTCCCCAGGG it was 3.63 ± 1.6; in that of TAACATCTTC, 1.01 ± 0.079.

For the sequence CCTTTAGATT, the switch fluorescence ratio amounted to 1.01 ± 0.013. On to GGAAGCTTAA, for which the switch fluorescence ratio was 1.048 ± 0.0032. Regarding GAGTAAGACA, the switch fluorescence ratio is 0.99 ± 0.013. On to ACTGTACACC, for which the switch fluorescence ratio worked out at 1.46 ± 0.026. As for TTTATACCAG, the switch fluorescence ratio turned out to be 1.004 ± 0.0066.

For TGGCAAAGGA, the switch fluorescence ratio is 0.989 ± 0.026. As to AACTATGCCT, the switch fluorescence ratio came to 1.03 ± 0.037. Consider AGGGTGGGGA, for which the switch fluorescence ratio was determined as 1.01 ± 0.036.

With GGGCTGGATT, the switch fluorescence ratio was determined as 1.01 ± 0.036. In the case of AGCGCTGGGA it was 1 ± 0.05; in that of CGTTACGCTG, 0.979 ± 0.026; in that of GCTACAGCTA, 1.01 ± 0.04.

Consider CCAATTCAAG, for which the switch fluorescence ratio came to 0.9977 ± 0.0073. Regarding GTAATCATCG, the switch fluorescence ratio turned out to be 0.9847 ± 0.0073.

Turning to AAAAAGTTGG, the switch fluorescence ratio was determined as 1.005 ± 0.0099. For AAATCTCGGA, the switch fluorescence ratio worked out at 1.2 ± 0.31. Consider GTATTTTGGG, for which the switch fluorescence ratio came to 0.996 ± 0.014. In the case of AAAAATTTTA, the switch fluorescence ratio amounted to 0.993 ± 0.026. Consider TTATGGCATC, for which the switch fluorescence ratio worked out at 0.974 ± 0.029. Regarding CTCCTGTTTT, the switch fluorescence ratio was 1.02 ± 0.023. As to AATTAGTTGC, the switch fluorescence ratio is 0.989 ± 0.016. With GAAATATAAT the figure was 1.012 ± 0.0066. In the case of AATTTTGGTG, the switch fluorescence ratio was determined as 0.998 ± 0.047. With CCGAGGAGAG the figure was 1.1 ± 0.037; with GGTATATTCC, 1.02 ± 0.024.

For TTACTAGGCG, the switch fluorescence ratio amounted to 1.01 ± 0.053. With CCTCTTCATA the figure was 2.54 ± 0.28.

On to AGGTTATTTG, for which the switch fluorescence ratio turned out to be 0.978 ± 0.015.

As for TAAATTTGAG, the switch fluorescence ratio was 0.991 ± 0.011.

Take CTCTTTTGGG: the switch fluorescence ratio came out at 0.9652 ± 0.0019. With ATGCAGGCAC the figure was 1.03 ± 0.024. TGGGACGACG: the switch fluorescence ratio came to 0.991 ± 0.022. With GATATGGGAG, the switch fluorescence ratio amounted to 0.988 ± 0.018.

Consider GCCAAAGACA, for which the switch fluorescence ratio is 0.9573 ± 0.0053.

ATTGGGGAGG: the switch fluorescence ratio worked out at 0.974 ± 0.012.

For TGTTGTGCAG, the switch fluorescence ratio came to 0.958 ± 0.03. With ACGAATGCGT, the switch fluorescence ratio was determined as 0.975 ± 0.047. With ATTATTTTAT the figure was 1.05 ± 0.069. AGGGGTAGGT: the switch fluorescence ratio is 0.982 ± 0.019.

As for ATAATGATTG, the switch fluorescence ratio worked out at 0.994 ± 0.016. For the sequence TCTTCATGCG, the switch fluorescence ratio came out at 1.07 ± 0.053. For TGTGTTGGTG, the switch fluorescence ratio is 1.02 ± 0.033. Consider TATGGTGAGG, for which the switch fluorescence ratio was found to be 0.976 ± 0.013. Take ATTAGAGGGA: the switch fluorescence ratio is 1.01 ± 0.029.

With TATGTTTCAG, the switch fluorescence ratio worked out at 0.972 ± 0.038. In the case of TAAGGGAAAC, the switch fluorescence ratio was found to be 0.963 ± 0.013. Regarding TTTATTTATT, the switch fluorescence ratio is 0.998 ± 0.021. In the case of AATGGCGGGA, the switch fluorescence ratio was 1.021 ± 0.0015.

For the sequence CCGGGGGACA, the switch fluorescence ratio came out at 1.1 ± 0.17. For AGATCAGGAT, the switch fluorescence ratio came out at 1.02 ± 0.012. With TTTGGGTTGA the figure was 1.03 ± 0.017; with CTGTTTAGTC, 1.01 ± 0.015; with TTAGGTAGTG, 0.9667 ± 0.0047. In the case of GCTTTAGTGG it was 0.963 ± 0.012; in that of TTGACAATGT, 1.03 ± 0.095; in that of CGGTCATTCA, 1.02 ± 0.055. Consider GGAGTTTTTT, for which the switch fluorescence ratio was found to be 0.968 ± 0.029. With CCAAGTTTTT the figure was 0.98 ± 0.031; with TGGGAGTGGT, 1 ± 0.003. As for GACGGCTTGG, the switch fluorescence ratio was 1.02 ± 0.025.

In the case of GTACTGCCTG, the switch fluorescence ratio came out at 1 ± 0.024. With AGATTTGTGT the figure was 0.959 ± 0.024; with AAAACGGTTG, 1 ± 0.019. In the case of AGGTAATAGT it was 1.03 ± 0.028; in that of AGCGCATTGT, 1.02 ± 0.031. Turning to CGTGCGGGGA, the switch fluorescence ratio was 1.02 ± 0.032. On to TTGGTAATAG, for which the switch fluorescence ratio was 1.03 ± 0.015. Turning to GAGGCGTACG, the switch fluorescence ratio came out at 1.04 ± 0.021. Consider AGGCCGGAAT, for which the switch fluorescence ratio came out at 1.27 ± 0.46.

Regarding GTGATAGTTA, the switch fluorescence ratio was found to be 0.967 ± 0.043.

Regarding CGTGATTAAG, the switch fluorescence ratio is 1.09 ± 0.17.

In the case of AAGTTTAGGG, the switch fluorescence ratio stood at 0.996 ± 0.027. As to GGGAGAGCGT, the switch fluorescence ratio came to 0.966 ± 0.018. In the case of AGGGAAAGTG it was 0.971 ± 0.02; in that of TGATATTGAG, 1 ± 0.045; in that of ACTGCTGTTT, 0.9834 ± 0.0026. ACGTCCCGGG: the switch fluorescence ratio is 1.09 ± 0.015.

Consider TTTAAGAGGT, for which the switch fluorescence ratio came to 0.982 ± 0.023.

For the sequence CATGGGTCCT, the switch fluorescence ratio came out at 1.04 ± 0.033.
